This is an account of results in the supplement of paper PMC9170038.

For the data set, the system named is MS2 coat protein. Description: apparent KD of MS2 coat protein; designed switch direction (-1 OFF switch, 1 ON switch): -1; higher = weaker reporter binding. The essentials:
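Designed RNA switches with common flanks were transcribed on Illumina chips by stalled E. coli RNA polymerase and titrated with SNAP-549-labelled MS2 coat protein, from 0.7 or 1.5 nM doubling to 3 µM, in Tris-HCl pH 7.5 buffer with KCl, MgCl2, BSA, DTT, tRNA and Tween-20. Steps lasted 0.8–1.5 h (lowest) to 10–20 min (highest). Titrations ran without input, with 200 uM small-molecule ligand, or with an oligonucleotide input. Normalised cluster fluorescence was curve-fitted, and apparent KD is the per-design median over clusters.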

Where [1] appears, read: Eterna round: R95, input ligand: FMN 200 uM.
The mark [2] stands for this setting: Eterna round: R95, input ligand: microRNA oligo, concentration not stated.
[3] abbreviates: Eterna round: R95, input ligand: none.
The mark [4] stands for this setting: input ligand: microRNA oligo, concentration not stated.

Consider “AUACCAUGCCGCCUAAUAGCUUUUUGCUCGUCUUAUAAAACAUGAGGAUCACCCAUGUAAAACUCGUGGCGUGACCC [Leorbixe] (puzzle: Sensor v3, turn-off variant 2)”, for which the “apparent KD of MS2 coat protein” value is, setting by setting: under setting [1], 0.077 µM; under setting [2], 0.0199 µM; under setting [3], 0.0608 µM.
Regarding “AUACGUGAGAAGGAUAUCACACGCCAGAGGCGUUGAGAAGGUUUCACAUGAGGAUCACCCAUGUGCUCUUCCAG [Orlaa] (Eterna round: R97, puzzle: Exclusion 6)”, the “apparent KD of MS2 coat protein” value (input ligand: FMN 200 uM) turned out to be 0.0613 µM and the “apparent KD of MS2 coat protein” value (input ligand: none) is 0.0235 µM.
In the same order, the values of “AUAUACGGGCAGGAUAUGCGAGCCAGAAAGCACGCAGAAGGGCUAACAUGAGGAUCACCCAUGUGAGCAACUCG [Eternabot (Original) Solution 9] (Eterna round: R97, puzzle: Exclusion 6)” are 0.0181 µM and 0.0149 µM.
In the case of “AUAUCAAGCAAGGAUAUGCAAAUGGUUAUUUAUGCAGAAGGUGCGACAUGAGGAUCACCCAUGUUUCUGGGUUU [JR_E6_Sub050] (puzzle: Exclusion 6)”, under setting [2], the “apparent KD of MS2 coat protein” value worked out at 0.0682 µM.
As for “AUAUCACAUGAGGAUCACCCAUGUCAGGAUAUGAUACUAUGUACUUCGGUACAUAGUAUCAGAAGGGAUAUGAA [Ex1-3: 66] (Eterna round: R96, puzzle: Exclusion 1)”, the “apparent KD of MS2 coat protein” value by setting is: (input ligand: FMN 200 uM) 0.0833 µM; under setting [4], 0.0292 µM; (input ligand: none) 0.0403 µM.
In the case of “AUAUCACAUGAGGAUCACCCAUGUCAGGAUAUGAUACUAUGUACUUCGGUACAUAGUAUCAGAAGGGAUAUGAA [Ex1-3: 66] (puzzle: Exclusion 1)”, the “apparent KD of MS2 coat protein” value under setting [2] was found to be 0.0454 µM.
With “AUAUCCCGAGGAUAUACAUGAGGAUCACCCAUGUCGGGCCUCUGGCCUAAGGCCGAAAGUAGAAGGUGGGUUUC [JL Riri mod 11] (puzzle: Exclusion 3)”, the “apparent KD of MS2 coat protein” value under setting [2] is 0.126 µM.
On to “AUAUGUGCGAGAGGAUAUCGUGUACAAAGUACACGAGAAGGCUUCACAUGAGGAUCACCCAUGUACCGAGGUGAAACACCUUGA [Omei Exc(NG)1 Bv5] (Eterna round: R96, puzzle: Exclusion NG 1)”, for which the “apparent KD of MS2 coat protein” value runs as follows: (input ligand: FMN 200 uM) 0.357 µM; under setting [4], 0.156 µM; (input ligand: none) 0.234 µM.
As to “AUAUUAAUAGUAAGGAUAUGCGUAUAUAUAAUUAUGCAGAAGGUACAUGAGGAUCACCCAUGUAUUAAUGUAUA [LRO-BmodExc4-01-Oppy's Opus] (Eterna round: R97, puzzle: Brourd's mod of Exclusion 4)”, the “apparent KD of MS2 coat protein” value by setting is: (input ligand: FMN 200 uM) 0.0165 µM; (input ligand: none) 0.0156 µM.
The matching figures for “AUAUUACAUGAGGAUCACCCAUGUGAGGAUAUGGAGCGAGACUGUCCUGUCGCGUACACCAGAAGGCGCGGGCG [1st #53] (Eterna round: R97, puzzle: Exclusion 1)”: 0.0275 µM and 0.031 µM.
The matching figures for “AUAUUACAUGAGGAUCACCCAUGUGAGGAUAUGGAGCGCGACCGCCCGGUCGCGUACACCAGAAGGCGCGGGCG [1st #57] (Eterna round: R97, puzzle: Exclusion 1)”: 0.0462 µM and 0.0223 µM.
Regarding “AUCAGCUCGUCAGGAUAUACAUGAGGAUCACCCAUGUGGUCAUUAGCAGCUUCGGCUGCAUUAAUGUAGAAGGGACGAGCUGAU [ENG2/8-B2] (Eterna round: R96, puzzle: Exclusion NG 2)”, the “apparent KD of MS2 coat protein” value reads like this: (input ligand: FMN 200 uM) 0.544 µM; under setting [4], 0.522 µM; (input ligand: none) 0.502 µM.
In the same order, the values of “AUCAGCUCGUGAGGAUAUGAACAUGAGGAUCACCCAUGUAAGAUCAAGCUGCUUCGGCAGCAAGUUCAGAAGGUACGAGCUGAU [ENG2/10-C3] (Eterna round: R96, puzzle: Exclusion NG 2)” are 0.197 µM, 0.0781 µM and 0.139 µM.
For “AUCAUGUGAGGAUAUGUGAUCAACCUUCUGUAUAGAUGAUUACAGAAGGCACAUGAGGAUCACCCAUGUAGAUC [Ex4 - 3 - 21] (puzzle: Exclusion 4)”, under setting [2], the “apparent KD of MS2 coat protein” value worked out at 0.0557 µM.
“AUCCUUAACAAGGAUAUCGGGCGGGAAAUUGUUUGAGAAGGUGUAACAUGAGGAUCACCCAUGUUAAACGUGGA [-18.8, -18.6 kcal, A 32%] (Eterna round: R97, puzzle: Exclusion 6)”: the “apparent KD of MS2 coat protein” value runs as follows: (input ligand: FMN 200 uM) 0.0223 µM; (input ligand: none) 0.0234 µM.
Take “AUCGUGAAGAAGGAUAUGGGCCCGGUAAUACGACUAGAAGGUCUGACAUGAGGAUCACCCAUGUGAUACCAAAA [Arorquis] (puzzle: Exclusion 6)”: the “apparent KD of MS2 coat protein” value is, setting by setting: under setting [1], 0.0322 µM; under setting [2], 0.0333 µM; under setting [3], 0.0325 µM.
In the case of “AUCGUGCAGCAAAGCUGUACGAGUACAUGAGGAUCACCCAUGUAGGAUAUGGUACGCUUUGCGUGCUAGAAGGAUAUGUGUAGG [Mat - Exclusion NG 3 - Mod of JL - D83] (Eterna round: R96, puzzle: Exclusion NG 3)”, the “apparent KD of MS2 coat protein” value worked out at 0.0357 µM (input ligand: FMN 200 uM), 0.031 µM under setting [4] and 0.0357 µM (input ligand: none).
“AUCGUGCAGCUUUGCUGUACGAGUACAUGAGGAUCACCCAUGUAGGAUAUGGUACGCAAAGCGUGCUAGAAGGAUAUGAGAUGU [Mat - Exclusion NG 3 - Mod of JL - D98] (Eterna round: R96, puzzle: Exclusion NG 3)”: the “apparent KD of MS2 coat protein” value was found to be 0.0304 µM (input ligand: FMN 200 uM), 0.0252 µM under setting [4] and 0.0316 µM (input ligand: none).
Take “AUCGUGUGAGGAUAUCGAUUAUGGAGGUCUAGGUCCAUACGCGAGAAGGCACAUGAGGAUCACCCAUGUAAUGG [jl-ex4-4.31 ViennaUCT mod] (Eterna round: R97, puzzle: Exclusion 4)”: the “apparent KD of MS2 coat protein” value by setting is: (input ligand: FMN 200 uM) 0.126 µM; (input ligand: none) 0.309 µM.
Turning to “AUGGGUCCUCACGGAGCUACAUGAGGAUCACCCAUGUGGAUUGAGGAUAUCGUAACCCGACGGGACGAGAAGGCAGUUUACUGU [Ex NG3 #98] (Eterna round: R96, puzzle: Exclusion NG 3)”, the “apparent KD of MS2 coat protein” value (input ligand: FMN 200 uM) is 0.0631 µM, the “apparent KD of MS2 coat protein” value under setting [4] was found to be 0.023 µM and the “apparent KD of MS2 coat protein” value (input ligand: none) came out at 0.0294 µM.
In the case of “AUGGUUCGAUUAGGAUAUUAUAGAUUGAAUAGUAUGAUUUACAUGAGGAUCACCCAUGUUACAUUUAAGAAGGAAUCGAAUCAU [JR_ExcNG2_Sub088] (Eterna round: R96, puzzle: Exclusion NG 2)”, the “apparent KD of MS2 coat protein” value by setting is: (input ligand: FMN 200 uM) 0.0139 µM; under setting [4], 0.0132 µM; (input ligand: none) 0.0215 µM.
Regarding “AUGUAAGCGGAGGAUAUCUGGUGGAUACAGAUGGGAGAAGGUCGCACAUGAGGAUCACCCAUGUCGCAGAGAUG [Eternabot (L2) Solution 83] (Eterna round: R97, puzzle: Exclusion 6)”, the “apparent KD of MS2 coat protein” value by setting is: (input ligand: FMN 200 uM) 0.0441 µM; (input ligand: none) 0.0553 µM.
In the same order, the values of “AUGUGACAUGAGGAUCACCCAUGUGAGGAUAUCAUGCUUCGUAGUAAACUACGAAGUGUGAGAAGGCACAUAAC [Omei Ex1 E7] (Eterna round: R97, puzzle: Exclusion 1)” are 0.357 µM and 0.0802 µM.
